From PMC7948448

Biological target: Bmh1 (UniProt P29311)
Assay: Strep-Bmh1 pull-down, stained SDS-PAGE
Conditions: reference: unmodified Hst2

binding against the reference (sites S320) | binding against the reference (sites S324) | Substance
gained | – | Hst2 (from UniProt P53686) Hst2 S320ph
– | gained | Hst2 (from UniProt P53686) Hst2 S324ph
